The source of these data is patent US20070253950A1 (Pfizer, published 2007).

In assay [1] the target is T1, human RAGE-strep tag fusion protein (human, UniProt Q15109 23-344).
T1 construct: monomeric soluble human RAGE; also called hRAGE-SA; soluble human streptavidin-tagged RAGE
The assay is described as follows: BIACORE, antibody coated on CM5 chip, hRAGE-SA in flow. For orientation: Surface plasmon resonance follows binding to a sensor surface in real time, without labels.

The target of assay [2] is T2, human RAGE-Fc fusion protein (human, UniProt Q15109 23-344).
T2 construct: amino acids 1-344 of human RAGE appended to the Fc domain of human IgG; also called hRAGE-Fc; huRAGE-Fc
Put plainly: direct binding ELISA, receptor coated 1 µg/ml, antibody 20 µg/ml. The protocol:
(§1) These receptors were chosen because they are cell-surface expressed, like RAGE, and their interaction with ligand is similarly dependent on charge. Tested receptors were rhVCAM-1, rhICAM-1-Fc, rhTLR4 (C-terminal His tag), rhNCAM-1, rhB7-H1-Fc mLox1-Fc, hLox1-Fc and hRAGE-Fc (as a positive control). ELISA plates were coated overnight with 1 μg/ml of the listed receptor proteins.
On the technique in general: An ELISA detects its analyte on a solid surface through an enzyme-linked reagent.

The target in a further assay is T3, rhVCAM-1 (human, UniProt P19320 25-698).
T3 sequence (looked up): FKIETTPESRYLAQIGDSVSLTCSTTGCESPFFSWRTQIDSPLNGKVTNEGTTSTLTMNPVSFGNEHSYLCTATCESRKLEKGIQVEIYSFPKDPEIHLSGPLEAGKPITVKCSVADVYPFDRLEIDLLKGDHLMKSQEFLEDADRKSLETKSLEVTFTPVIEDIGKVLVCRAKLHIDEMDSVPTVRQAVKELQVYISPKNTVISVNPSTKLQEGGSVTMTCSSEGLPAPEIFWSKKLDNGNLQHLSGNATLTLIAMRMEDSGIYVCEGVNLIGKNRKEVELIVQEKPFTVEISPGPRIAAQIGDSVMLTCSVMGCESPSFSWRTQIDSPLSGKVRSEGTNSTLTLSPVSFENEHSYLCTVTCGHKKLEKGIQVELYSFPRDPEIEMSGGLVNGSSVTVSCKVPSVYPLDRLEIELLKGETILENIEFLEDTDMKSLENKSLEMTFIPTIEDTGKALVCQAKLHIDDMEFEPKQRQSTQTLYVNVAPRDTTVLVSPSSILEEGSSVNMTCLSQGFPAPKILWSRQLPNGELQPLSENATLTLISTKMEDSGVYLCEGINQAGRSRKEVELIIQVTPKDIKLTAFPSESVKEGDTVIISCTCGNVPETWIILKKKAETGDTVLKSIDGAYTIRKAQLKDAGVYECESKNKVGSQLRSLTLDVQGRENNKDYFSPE
The assay is described as above. The protocol:
as §1

A further assay has as its target T4, rhICAM-1-Fc (human, UniProt P05362 28-480).
T4 construct: also called rhlCAM-1-Fc
Described as above. The procedure:
as §1

The next assay concerns the target rhNCAM-1 (human, UniProt P13591-1 20-603, limits assumed). The description is as above. The protocol: as §1
The target of another assay is rhB7-H1-Fc (human, UniProt Q9NZQ7 19-239). The description is as above. The protocol:
as §1

Another assay addresses mLox1-Fc (mouse, UniProt Q9EQ09 60-363, limits assumed). The description is as above. The protocol: as §1
The target in a further assay is hLox1-Fc (human, UniProt P78380 61-273). The assay is described as above. The protocol: as §1
Assay [3] concerns the target T2, human RAGE-Fc fusion protein. The assay is described as follows: antibody competition ELISA on hRAGE-Fc; competitor: biotinylated XT-M4. The protocol: ELISA plates were coated overnight with 1 ug/ml human RAGE-Fc. […] Briefly, plates were coated overnight with 1 ug/ml human RAGE-Fc.
The target is the same in assay [4]. Put plainly: ligand competition ELISA, panel 'Blocks hRAGE-Fc interaction with HMGB1'; blocked ligand HMGB1.
Assay [5] deals with T1, human RAGE-strep tag fusion protein. Put plainly: BIACORE capture assay: hRAGE-SA over antibody captured on anti-human Fc; steady state affinity; FC4. The protocol:
(§2) The assays were performed by coating anti-human Fc antibodies onto a CM5 BIA chip with 5000 RU (pH 5.0, 7 min.) in flow cells 1-4. Each antibody was captured by flowing at 2.0 μg/ml over the anti-Fc antibodies in flow cells 2-4 (flow cell 1 was used as a reference).

In assay [6] the target is T5, murine RAGE-strep tag fusion protein (murine, UniProt Q62151 23-343).
T5 construct: also called mRAGE-strep; mRAGE-SA
T5 chain: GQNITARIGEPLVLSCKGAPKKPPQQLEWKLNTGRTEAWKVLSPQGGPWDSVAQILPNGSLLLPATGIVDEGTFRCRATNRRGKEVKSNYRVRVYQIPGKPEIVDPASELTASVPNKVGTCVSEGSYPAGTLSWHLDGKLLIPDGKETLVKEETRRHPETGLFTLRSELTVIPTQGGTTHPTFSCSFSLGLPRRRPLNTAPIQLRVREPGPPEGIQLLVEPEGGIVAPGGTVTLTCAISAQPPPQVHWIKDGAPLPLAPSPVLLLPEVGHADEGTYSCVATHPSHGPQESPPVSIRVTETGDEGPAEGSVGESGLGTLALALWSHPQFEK
The assay is described as follows: BIACORE capture assay: mRAGE-SA (SA-Mu RAGE) over antibody captured on anti-human Fc; 1:1 Langmuir global fit; FC4. The procedure: as §2

In assay [7] the target is T1, human RAGE-strep tag fusion protein. Put plainly: BIACORE capture assay: hRAGE-SA over antibody captured on anti-human Fc; 1:1 Langmuir global fit; average of FC2-FC4. The protocol:
as §2

Assay [8] addresses T5, murine RAGE-strep tag fusion protein. The assay is described as follows: BIACORE capture assay: mRAGE-SA (SA-Mu RAGE) over antibody captured on anti-human Fc; 1:1 Langmuir global fit; average of FC2-FC4. The procedure: as §2

By Kd is commonly meant the free concentration of one partner at which half of the binding sites on the other are occupied at equilibrium, for simple one-to-one binding. Low readings indicate higher affinity, high ones lower affinity. What is called koff is a measure of how fast the partners let go of each other. Read a high koff as a short-lived complex. As usually defined, the kon is the rate constant with which the complex forms. High values mean faster complex formation, low ones slower complex formation.

rhNCAM-1, sequence (P13591 other isoform, or with tags, fused parts or gaps limits assumed): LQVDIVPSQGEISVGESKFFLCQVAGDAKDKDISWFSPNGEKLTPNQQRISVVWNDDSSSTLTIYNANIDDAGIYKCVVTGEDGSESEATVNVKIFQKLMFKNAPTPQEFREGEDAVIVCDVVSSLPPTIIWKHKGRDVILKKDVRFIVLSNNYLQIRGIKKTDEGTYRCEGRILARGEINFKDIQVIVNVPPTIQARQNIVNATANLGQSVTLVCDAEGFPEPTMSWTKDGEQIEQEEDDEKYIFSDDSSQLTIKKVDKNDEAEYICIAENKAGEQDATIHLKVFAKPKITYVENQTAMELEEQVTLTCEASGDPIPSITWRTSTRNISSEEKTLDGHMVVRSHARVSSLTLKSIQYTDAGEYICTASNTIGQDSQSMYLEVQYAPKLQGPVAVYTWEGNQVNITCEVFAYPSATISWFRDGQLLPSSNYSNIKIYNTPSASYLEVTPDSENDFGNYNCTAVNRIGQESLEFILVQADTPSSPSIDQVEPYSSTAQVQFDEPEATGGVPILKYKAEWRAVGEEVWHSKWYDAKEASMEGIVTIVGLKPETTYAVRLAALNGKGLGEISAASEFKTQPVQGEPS
mLox1-Fc, sequence (Q9EQ09 60-363 limits assumed): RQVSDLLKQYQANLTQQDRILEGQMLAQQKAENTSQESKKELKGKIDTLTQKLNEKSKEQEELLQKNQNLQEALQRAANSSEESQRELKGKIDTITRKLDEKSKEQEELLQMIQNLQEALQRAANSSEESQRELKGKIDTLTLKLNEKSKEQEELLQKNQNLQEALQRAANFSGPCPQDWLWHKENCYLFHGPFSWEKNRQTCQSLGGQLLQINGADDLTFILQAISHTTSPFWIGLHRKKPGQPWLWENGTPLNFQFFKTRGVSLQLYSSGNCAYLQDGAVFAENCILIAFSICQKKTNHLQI
rhB7-H1-Fc, sequence (Q9NZQ7 19-239 limits assumed): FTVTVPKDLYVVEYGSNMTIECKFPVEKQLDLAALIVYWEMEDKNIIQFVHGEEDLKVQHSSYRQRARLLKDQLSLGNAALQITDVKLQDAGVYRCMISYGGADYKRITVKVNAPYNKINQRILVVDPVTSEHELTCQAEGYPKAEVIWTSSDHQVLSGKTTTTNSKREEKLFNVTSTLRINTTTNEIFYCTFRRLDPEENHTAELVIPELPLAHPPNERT
T4 sequence (P05362 28-480 limits assumed): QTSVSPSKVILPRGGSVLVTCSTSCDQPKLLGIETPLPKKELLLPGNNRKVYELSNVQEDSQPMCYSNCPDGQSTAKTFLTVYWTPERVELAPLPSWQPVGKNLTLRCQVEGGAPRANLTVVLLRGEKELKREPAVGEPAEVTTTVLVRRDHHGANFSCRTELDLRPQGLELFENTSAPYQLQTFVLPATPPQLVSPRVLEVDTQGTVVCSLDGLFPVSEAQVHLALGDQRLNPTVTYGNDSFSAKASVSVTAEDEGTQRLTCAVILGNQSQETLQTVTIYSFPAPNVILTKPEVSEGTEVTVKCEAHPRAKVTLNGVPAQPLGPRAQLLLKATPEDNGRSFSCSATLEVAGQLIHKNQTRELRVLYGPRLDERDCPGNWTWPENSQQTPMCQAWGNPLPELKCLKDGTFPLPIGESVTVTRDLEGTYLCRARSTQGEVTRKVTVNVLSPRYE

B1: chimeric XT-M4 (antibody, V domains shown)
VH: EVQLVESGGGLVQPGRSLKLSCVVSGFTFNNYWMTWIRQTPGKGLEWVASINNSGDNTYYPDSVKDRFTISRDNAKSTLYLQMNSLRSEDTATYYCTRGGDITTGFDYWGQGVMVTVSS
VL: DIQMTQSPSSMSVSLGDTITITCRASQDVGIYVNWFQQKPGKSPRRMIYRATNLADGVPSRFSGSRSGSIYSLTISSLESEDVADYHCLEFDEHPLTFGSGTKVEIK
modifications: N-linked oligosaccharide at Asn52 (CDR2) on part of the heavy chains
notes: rat XT-M4 variable regions fused to human kappa light chain and human IgG1 heavy chain constant regions; L234A and G237A in the human IgG1 Fc region; also called chimeric antibody XT-M4; XT-M4-A-1
In the case of B1, the Kd in assay [1] is ~5.5 nM; in [5] it was 11 nM; in [6], 2 nM; in [7], 7.91 nM; in assay [8] it was 1.9 nM. Besides, the OD450 turned out to be 3.8 in [2]; 0.004 in the assay with rhVCAM-1; 0.004 with rhICAM-1-Fc; 0.006 with rhNCAM-1; 0.003 with rhB7-H1-Fc; 0.01 with mLox1-Fc. The OD450 with hLox1-Fc amounted to 0.017. The “IC50 (read off the curve)” value in [3] is ~0.4 mg/L; in assay [4], ~0.1 mg/L. Moreover, the values for the koff in assay [6], in assay [7] and in [8] were 0.0041 s⁻¹, 0.0351 s⁻¹ and 0.0041 s⁻¹, respectively. The on-rate (kon) in [6] is 2.1e+06 M⁻¹ s⁻¹; in assay [7], 4.41e+06 M⁻¹ s⁻¹; in [8], 2.1e+06 M⁻¹ s⁻¹.
